The source of these data is article PMC2854606.

The data set deals with T1, endogenous MGR (Mus musculus (C2C12 myoblasts)) (UniProt D2EAC2).
T1 sequence: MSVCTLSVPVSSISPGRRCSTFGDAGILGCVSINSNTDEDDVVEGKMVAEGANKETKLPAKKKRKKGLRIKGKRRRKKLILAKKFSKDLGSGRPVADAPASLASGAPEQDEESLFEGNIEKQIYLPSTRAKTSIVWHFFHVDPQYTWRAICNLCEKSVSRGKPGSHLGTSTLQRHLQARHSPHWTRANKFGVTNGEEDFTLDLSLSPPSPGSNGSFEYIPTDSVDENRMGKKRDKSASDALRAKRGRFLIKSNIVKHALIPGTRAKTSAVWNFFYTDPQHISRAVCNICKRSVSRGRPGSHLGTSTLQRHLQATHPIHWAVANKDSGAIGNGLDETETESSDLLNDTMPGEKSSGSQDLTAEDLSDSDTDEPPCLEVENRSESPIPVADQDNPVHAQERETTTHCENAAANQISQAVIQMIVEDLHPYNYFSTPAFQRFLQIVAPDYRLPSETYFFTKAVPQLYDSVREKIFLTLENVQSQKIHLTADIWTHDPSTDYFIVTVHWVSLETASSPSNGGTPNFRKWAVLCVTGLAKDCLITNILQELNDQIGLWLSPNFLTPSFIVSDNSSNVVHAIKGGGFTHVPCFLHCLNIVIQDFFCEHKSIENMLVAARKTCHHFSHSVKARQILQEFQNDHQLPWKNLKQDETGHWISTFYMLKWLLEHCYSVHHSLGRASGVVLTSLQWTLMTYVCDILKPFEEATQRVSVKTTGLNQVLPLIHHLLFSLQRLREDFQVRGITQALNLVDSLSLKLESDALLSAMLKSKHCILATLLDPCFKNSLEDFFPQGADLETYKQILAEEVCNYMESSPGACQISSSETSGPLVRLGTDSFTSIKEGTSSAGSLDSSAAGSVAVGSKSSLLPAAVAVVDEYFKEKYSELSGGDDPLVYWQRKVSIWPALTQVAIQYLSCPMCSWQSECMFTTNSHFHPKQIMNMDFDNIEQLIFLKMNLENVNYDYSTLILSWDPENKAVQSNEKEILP
Put plainly: pull-down, SILAC MS.

Turning to “TTCAAAACTGCAGGATCCTTCGCCTAGGCTCGCAGCGCGGGAGCGA / AATCGCTCCCGCGCTGCGAGCCTAGGCGAAGGATCCTGCAGTTTTG [porcine IGF2 q (pulldown)]”, the binding signal (SILAC ratio q/Q) came out at 5.5.
